Measured values as given in the supplement of paper PMC9233669.
This sample holds only a part of the variants without activity.

Assays:
biotinyl-Val-oxazolone = assay: self-aminoacylation, catalytic enhancement (BVO) (fold over background); higher = more active; k-Seq, kA / k0A0; sequences stand for … in GGGAAUGGAUCCACAUCUACGAAUUC…UUCACUGCAGACUUGACGAAGCUG
Summary of the method: (§1)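 Each biotinyl-aminoacyl-oxazolone, at 2–1250 μM, was incubated with mutagenized RNA pools (0.43 μM) carrying a 21-nt variable region. The 50 μL reactions contained HEPES/NaCl/KCl/MgCl2/CaCl2 buffer with 5% acetonitrile at pH 6.9–7.0 and ran for 90 minutes at room temperature. After streptavidin capture, RNA was measured by qPCR in triplicate and by Illumina sequencing, and catalytic enhancement was calculated as median kA over the uncatalyzed rate from a pseudo-first-order fit of per-sequence fraction reacted.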

biotinyl-Ile-oxazolone = assay: self-aminoacylation, catalytic enhancement (BIO) (fold over background); higher = more active; k-Seq, kA / k0A0; sequences stand for … in GGGAAUGGAUCCACAUCUACGAAUUC…UUCACUGCAGACUUGACGAAGCUG
Summary of the method: as §1

biotinyl-Leu-oxazolone = assay: self-aminoacylation, catalytic enhancement (BLO) (fold over background); higher = more active; k-Seq, kA / k0A0; sequences stand for … in GGGAAUGGAUCCACAUCUACGAAUUC…UUCACUGCAGACUUGACGAAGCUG
Summary of the method: as §1

biotinyl-Trp-oxazolone = assay: self-aminoacylation, catalytic enhancement (BWO) (fold over background); higher = more active; k-Seq, kA / k0A0; sequences stand for … in GGGAAUGGAUCCACAUCUACGAAUUC…UUCACUGCAGACUUGACGAAGCUG
Summary of the method: as §1

biotinyl-Met-oxazolone = assay: self-aminoacylation, catalytic enhancement (BMO) (fold over background); higher = more active; k-Seq, kA / k0A0; sequences stand for … in GGGAAUGGAUCCACAUCUACGAAUUC…UUCACUGCAGACUUGACGAAGCUG
Summary of the method: as §1

biotinyl-Phe-oxazolone = assay: self-aminoacylation, catalytic enhancement (BFO) (fold over background); higher = more active; k-Seq, kA / k0A0; sequences stand for … in GGGAAUGGAUCCACAUCUACGAAUUC…UUCACUGCAGACUUGACGAAGCUG
Summary of the method: as §1

Row | Sequence | self-aminoacylation (biotinyl-Val-oxazolone) | self-aminoacylation (biotinyl-Ile-oxazolone) | self-aminoacylation (biotinyl-Leu-oxazolone) | self-aminoacylation (biotinyl-Trp-oxazolone) | self-aminoacylation (biotinyl-Met-oxazolone) | self-aminoacylation (biotinyl-Phe-oxazolone)
1 | AUUACCCUGCUCAUCGAGCGA [Fam2.1 aminoacylation ribozyme variant] | 0.851 | 1.12 | 1.4 | 0.81 | 1.3 | 0.874
2 | AUUACCCUGCUCAUCGAGUCA [Fam2.1 aminoacylation ribozyme variant] | 0.819 | 0.779 | 0.646 | 0.425 | 0.64 | 0.452
3 | AUUACCCUGCUCAUCGCGUGA [Fam2.1 aminoacylation ribozyme variant] | 7.29 | 7.11 | 16.4 | 16.9 | 17.1 | 152
4 | AUUACCCUGCUCAUCUAGUGA [Fam2.1 aminoacylation ribozyme variant] | 3.3 | 2.97 | 6.75 | 8.05 | 6.35 | 29.8
5 | AUUACCCUGCUGAUCGAGUGA [Fam2.1 aminoacylation ribozyme variant] | 1.67 | 1.93 | 2.87 | 2.77 | 2.68 | 10.4
6 | AUUACCCUGGACAUCCAGUGA [Fam2.1 aminoacylation ribozyme variant] | 2.51 | 2.61 | 3.82 | 4.13 | 3.32 | 15.9
7 | AUUACCCUGGACAUCGACUGA [Fam2.1 aminoacylation ribozyme variant] | 0.626 | 0.543 | 0.529 | 0.238 | 0.616 | 0.713
8 | AUUACCCUGGACAUCGAGGGA [Fam2.1 aminoacylation ribozyme variant] | 1.19 | 1.53 | 1.46 | 2.17 | 2.18 | 1.26
9 | AUUACCCUGGACAUCGAUUGA [Fam2.1 aminoacylation ribozyme variant] | 0.863 | 0.804 | 0.831 | 0.675 | 0.785 | 0.447
10 | AUUACCCUGGACAUCUAGUGA [Fam2.1 aminoacylation ribozyme variant] | 2.71 | 2.55 | 5.12 | 5.51 | 5.4 | 17
11 | AUUACCCUGGCAAUCGAGUGA [Fam2.1 aminoacylation ribozyme variant] | 3.02 | 2.78 | 5.38 | 5.92 | 4.83 | 28.2
12 | AUUACCCUGGCCAGCGAGUGA [Fam2.1 aminoacylation ribozyme variant] | 3.29 | 2.73 | 4.29 | 4.9 | 5 | 18
13 | AUUACCCUGGCCAUCGAGAGA [Fam2.1 aminoacylation ribozyme variant] | 1.01 | 0.69 | 0.919 | 0.803 | 1.02 | 0.439
14 | AUUACCCUGGCCAUCGAGUCA [Fam2.1 aminoacylation ribozyme variant] | 0.826 | 0.78 | 0.727 | 0.66 | 0.714 | 0.47
15 | AUUACCCUGGCCAUCUAGUGA [Fam2.1 aminoacylation ribozyme variant] | 2.79 | 2.93 | 5.69 | 4.43 | 4.68 | 28.6
16 | AUUACCCUGGCCAUGGAGUGA [Fam2.1 aminoacylation ribozyme variant] | 2.79 | 3.24 | 4.12 | 5.9 | 4.45 | 19.7
17 | AUUACCCUGGCGAUCGAGUGA [Fam2.1 aminoacylation ribozyme variant] | 2.69 | 2.12 | 4.77 | 4.59 | 4.06 | 24.3
18 | AUUACCCUGGGCACCGAGUGA [Fam2.1 aminoacylation ribozyme variant] | 2.84 | 3.37 | 6.68 | 5.46 | 6.11 | 37.9
19 | AUUACCCUGGGCAUCCAGUGA [Fam2.1 aminoacylation ribozyme variant] | 3.83 | 3.76 | 8.87 | 7.23 | 8.06 | 50.6
20 | AUUACCCUGGGCAUCGAAUGA [Fam2.1 aminoacylation ribozyme variant] | 0.934 | 0.945 | 0.912 | 2.01 | 0.647 | 1.14
21 | AUUACCCUGGGCAUCGCGUGA [Fam2.1 aminoacylation ribozyme variant] | 5.38 | 3.74 | 9.41 | 7.7 | 6.98 | 48.7
22 | AUUACCCUGGUAAUCCAGUGA [Fam2.1 aminoacylation ribozyme variant] | 4.36 | 4.07 | 8.77 | 10.7 | 8.47 | 51.9
23 | AUUACCCUGGUAAUCGGGUGA [Fam2.1 aminoacylation ribozyme variant] | 4.83 | 4.26 | 13.1 | 12.1 | 12.4 | 86.9
24 | AUUACCCUGGUAAUUGAGUGA [Fam2.1 aminoacylation ribozyme variant] | 6.33 | 6.96 | 17.1 | 19.2 | 16.2 | 117
25 | AUUACCCUGGUCAACCAGUGA [Fam2.1 aminoacylation ribozyme variant] | 3.78 | 3.9 | 6.76 | 7.15 | 6.42 | 39.2
26 | AUUACCCUGGUCAACGAGGGA [Fam2.1 aminoacylation ribozyme variant] | 1.56 | 1.49 | 1.85 | 2.56 | 1.49 | 1.26
